The source of these data is a protein production outcome set (Wang et al. 2014).

The series is described as follows: label from the status in PepcDB records.

As to “MRTLLFLMLGSVSAIANAASPAPASASASAASATATATPEQIKLQLREYFFDAAREGRQDMLAEFIRSHYDLNTRDEKGYTALILAAYHGQRPAVEQLLSAGADPCAQDKRGNTALMGAIFKGELGIAKRLMQADCAPDQRNNAGQTAAMYAALFQRTDVLKDLAAKGADLSLKDGQGNDVTKLQRGEFATTPAR”, the protein production entry is on record as “failed”.
With “MRTLLITGPGGSGRTTVAAATALRASRTGTRTLVLSADRTDTLGAALGVPTGGAPVEAAPGLTAWRPDAADRFRADLTAFQDRAATALDFLGAARLDAEELTPLPGAEELALLRALRDAALSEAYDLLVVDLPPAPQALALLALPEELRRYLRRLLPPERQAARALRPVLGRLAGVPMPADWLYETAARWDVELAAVEAVVEDRATTVRLVAEPGPAGADAVRAAATGFALRAVRIDTLIANRLLPEEADDAWSAGLAAQQRKFLEEWRGEYRLHELPHLGHDPRGADDLAALAVPGVNDAPGPVEWSVADRLADDGVLVWHIPLPGAIRDELDLLRRGDELVVTAGQFRRIVPLPSALRRCTVAGAALREGELRIRFAPDPDLWPRERLEHHHHHH”, the protein production entry is listed as “not failed”.
Then “MRTLRSLMLAAALAVALAVTGFAASPLPSAYAKYAAGPTKILPLQRAFPLDELVELSELRARDRVRHARILLGGGRQSSVGGVVDFPVQGSSDPYLVGLYFTKVKLGSPPTEFNVQIDTGSDILWVTCSSCSNCPHSSGLGIDLHFFDAPGSLTAGSVTCSDPICSSVFQTTAAQCSENNQCGYSFRYGDGSGTSGYYMTDTFYFDAILGESLVANSSAPIVFGCSTYQSGDLTKSDKAVDGIFGFGKGKLSVVSQLSSRGITPPVFSHCLKGDGSGGGVFVLGEILVPGMVYSPLVPSQPHYNLNLLSIGVNGQMLPLDAAVFEASNTRGTIVDTGTTLTYLVKEAYDLFLNAISNSVSQLVTPIISNGEQCYLVSTSISDMFPSVSLNFAGGASMMLRPQDYLFHYGIYDGASMWCIGFQKAPEEQTILGDLVLKDKVFVYDLARQRIGWASYDCKCNHRVMSYRKL”, with “failed”; and “MRTMPDKPDTWARIVAAISNPLWQGMIMAIVVSLLRILYDAKETSKRRILFEALICGSLSLVASSLIEWMTWPPSLSVAAGGTIGFLGVTAIRELVARFIGRKVDSL”, with “failed”; and “MRTPTTILLLVGAILFSGAGYVRSDASDHRYKEGDTVPLYANKVGPFHNPSETYRYFDLPFCIPEGVKEKKEALGEVLNGDRLVSAPYKLNFRDEKESEVYCNKKLSKEEVKQFRKAVEKDYYFQMYYDDLPIWGFIGKVDKDIKSDPSEFKYFLYKHIQFEILYNKDRVIEISARMDPHSLVDLTEDKEVDAEFMYTVKWKETETPFEKRMEKYSMSSSLPHHLEIHWFSIINSCVTVLLLTGFLATILMRVLKNDFMKYAQDEEAADDQEETGWKYIHGDVFRFPTHNSLFAASLGSGTQLFTLTIFIFMLALVGVFYPYNRGALFTALVVIYALTSGIAGYTSASFYCQLEGKSWVRNLLLTGCLFCGPLFLTFCFLNTVAITYTATAALPFGTIVVIVLIWTLVTSPLLVLGGIAGKNSKAEFQAPCRTTKYPREIPPLPWYRSAIPQMAMAGFLPFSAIYIELYYIFASVWGHRIYTIYSILFIVFIILIIVTAFITVALTYFQLAAEDHQWWWRSFLCGGSTGLFIYAYCLYYYYARSDMSGFMQTSFFFGYMACICYGFFLMLGTVGFRAALLFVRHIYRSIKCE”, with “failed”.
Take “MRTRWLPRGRGLGSASARLRSAVAGRGTVRAELGYGAFLSYSGERDRRWLPQLRHAIEKQSRPWYKPPHIRVFLDKTGVSIGPELWGKIEAGLARSDWLVVLASPEARASVWVDREIAWWLEHKSVHTILLVVTAGQLVWDEERGDWDPERSTALPARLAGKFERQPVWKSVDPRPDGDAVFSTDDAGFSPDVDGVAFGVASVVRGLSEDELRSEGLRDTRRNLRTARIVATALGCLLLVASTLSVVAVLSRAEATRQRDQAVVQQLITQSSLLAERDPFAARLKALAAWRIDPSPETRFAVLDAAVNPASGVLSHSVPVDSVAFSPDGRTVASGGSDGVVRIWRTGTQRTAGRPLIGHHQGITSIAFAPDGRTLASSGFDGTVRLWDLADRTQIGAPFNAGAGSVRSVAFGRDGRTLVTVDEADSGTVRVWDVATHRQTGHPLDGPGPVLGTNADGSRVGSSTSQGGIRLWDTASGAPAGGALKGGDGVVTALSFSSDGKTFATADLVGNLRLWDIEARAPVGEPIASPATSTGVRAITFSPDGAMLAAAYEGGGVRLWDLRRRAQVGGPLLAHTSTVESVAFSPDGSVLASASADTTVRLWDVRTLRQAGAPIDTGGKGAAALSPDGRSLAVVDSEQAVRLWDVVARRRVGEPLVRGVYSFSPSLAFRADGAVLAIGADGLRLREVATRRPVGEPLLGTGDVGALSFGPDGRTLVSGGPDSVHVWDLTARPPTGTALGPRSVGVALSPDGRSLATTTQDDTVVFWDMATRRRIGETPGDHTAQITAVAWSPDGTTLATAGRDDTVRLWDAATRERIGAPLRGHHGGLTSVVFSPDGATLATGGNDHTVRLWDVATERPIGAPLEGHGAGVTGVAFTPGGDTLVSWAQDGTARLWNVAATVDPVRSLCAWADGAFTTDRWHEDVPAGPASRTLCRK”: the protein production entry is reported as “failed”.
Then “MRTSGGQMNISSATLANTQRTIDSYEGCADDYSRIVDQFPWPSLEAALRQVATAAGKGGQILEIGSGAGWDADFLETQGVSVRRTDATRRFLELQAARGKKGELLNVITDDLGGPYDAVVALCVLIHAPRDQTGPVLEKIVAALRPGGVFLVSMRDGDGETSGAYHMSYWRRDDFALCIKEAGLALEWDAHRVNRDGDGWHTFYARRPE”, with “failed”; and “MRTSRVLAGILAATLTVSLAACSQDSSETSSNSSSAASQSSDVSNEAFPVTIEHAFGETTIESKPERIATVGWSNHEVPLALGVTPVGFEKVTWGDDDNNGILPWVEETLSKLGSDEPVLFDATDSIPFEEIANTAPDVILASYSGITQEDYDQLSQIAPVVAYPEIAWGTSLDEMIEMNSKAIGLEQEGKDLIADLDAEVASAIDANPELKDAKPVFAFFDESDFSQIGVYTSIDPRMSFLLDAGVQEASVLKEHSSPDSFYEQVSAENPETFDDVDVIITYGTEDDAANAELLSKMQADPLLSRIPAIAEGKVVFLGANPLAASANESPLSIPWGINDYFAKLAEPLK”, with “failed”.
In the case of “MRTWKMRKDGQRIDYLGRKWRNLGGPFMEVSRVVTWIIIITLVALAIKTILPFFSPLFFAFITAYALYPLHIKLKERIGSKNSAILLTLFLLLGALMILLILVYTLTPVIGQAYDYLTNLEKIKINIPLVPKSVISSLEGVIDEFIERGKGYLVSLTFSVPKYLLQVIVYLTFVYFFLVKEKEARELITFEDEKLIRIIERGNLTLQALIRVWLLLNIVKGILMTLGFLIFKVSNLPTAILAGLLTVLFSFIPLFEGWMIWLAGAFYLVKQGHIIAGIGLAVYGFTLVSPLPDFTIRPKLVAREAEFNDVLVLIGMIGGTWGLGLKGLIIGPIVLNVAIEMLREWKNVQAKTERS” it was “failed”; in that of “MRTYLVLFSILLVFLAGCISTESKVEDTTTAVTFVSVTDFTGETSTINSPVERVVSNYGLIPPIIYLFGEGDKIVAGRGVMGADEFIDAVDPEFKTRSKDIKSDNVEEIKSLNPDVIFAPSWGSQQGQYPQLKSLGIPVVFIDIETASNYYKTIEMMGEVFQKEAYAQELIDYYNQSTNDVLKRTASISENEKPRVLFLVYDQRKNSYWTPGGEFYQNNLITMAGGKTVSSDLPTGKAQINVEQAASWNPDVIITSAHTMEYPSTKVKEDVLTDEGWKEINAVKSGNVYAMPFDGESWDTLGSKYVLGLYWTAKTLHPDMYTDVDILNLTSSEYERFFNVSIDEVTLVGDNIE”, “failed”.
Then “MRVALAGRPQEALDVALPAAELPEHLRWRLRSWQADAQEALGQSAEATLLYAEAAHLAAGLNRAVMLQEQAALLLQQGDFEEARQVLERARTLYTGPRPGTDPNDEGLNLATWHYLMAQVRLNLGQPEAAQDDIREAARLEGLSGDPSYGVALVQGQVLSHLGQLEEALEAFGQALARATDPDRPYANHELGVALLDLDRPLEAREKLEEVLLVPDYPFHPEVLADIAECDYRLGRLPEAQLAAEQALNQGAVVPASVVLGNVALDYYHLDDALDHYERVVREAVHGSRDWVLGHQMAADVMAQQGFPDPAAAYAHAQQALEHTPESDDWYVTLQDHLSRAQALMGSAGGRTLN”, with “failed”; and “MRVALTIAGSDSGGGAGVQADLKVFFRFGVYGTSALTLVTAQNTLGVQRVHLLPPEVVYAQIESVAQDFPLHAAKTGALGDAAIVEAVAEAVRRFGVRPLVVDPVMVAKSGDPLLAKEAAAALKERLFPLADLVTPNRLEAEALLGRPIRTLKEAEEAAKALLALGPKAVLLKGGHLEGEEAVDLLATRGGVLRFSAPRVHTRNTHGTGCTLSAAIAALLAKGRPLAEAVAEAKAYLTRALKTAPSLGHGHGPLDHWA”, with “not failed”; and “MRVASDAGDAETLLAAVPANQRVAIVDARFVGHLHALRLGLTDPRFEAAALAGAVSAQPGARQALTRALARESSAATGGATVVMDNLAERITAALDADGVQVHRPDLGTLVAAVPADPQARNEVRQAVTAVDDEAVRLRTAVKSRDGFFTTHFISPYSRYLARWCARRGLTPNQVTTASLLTALVAAGCAATGTRAGFVAAGLLLLFSFVLDCADGQLARYSLQYSTLGAWLDATFDRAKEYAYYAGLALGAARGGDDVWALALGAMVLQSCRHIVDFSFNEANHDATANTSPTAALSDKLDSVGWTVWLRRMIVLPIGERWAMIAVLTALTTPRITFYALLIGCAFAATYTTAGRVLRSLTRKARRTDRAAQALADLTDSGPLAEFLTRFARRLRLRGPACVALVTGALVVLAAALAPYGSWWPVLAAVTYVLLSPVALLKPLKGALDWLVPPFYRAAEYGTVLVLAAKADVNGALPAAFGLVAAVAYHHYDTVYRIRGNAGAPPHWLVRAIGGHEGRTLLVTVLAALLVPTDFKVALTALAVAVALVVLVESIRFWVSSQAPAVHDEGEPA”, with “failed”.
As to “MRVDLNSDLGESFGRYKLGLDEEVMKYITSANVACGWHAGDPLVMRKTVRLAKENDVQVGAHPGYPDLMGFGRRYMKLTPEEARNYILYQVGALYAFAKAEGLELQHVKPHGALYNAMVKEEDLARAVIEGILDFDKDLILVTLSNSRVADIAEEMGLKVAHEVFADRAYNPDGTLVPRGRPGAVIEDKEEIAERVISMVKDGGIRAINGEWVDLKVDTICVHGDNPKAVEITSYIRKVLEEEGVKIVPMKEFIR”, the protein production result is reported as “not failed”.
In the case of “MRVFFSTLAGLALALAAGGAVASGLGDADKGREVFRQCAFCHAVGEGAENGIGPHLNGVFGRAAGRIEGVQYSKSMIRMGNDGLIWTAQTLDAYIENPRALVSKTRMSFRGIKNEQERSDLMAYLRRYSDDPGNIPEAEPTATGTDHDLDPVILAIQGDPEYGEYLASECKTCHQTSGANDGIPGITQWPTEDFVVAMHAYKRKLRPHPVMQMMAGRLSNDEIAALAAYFQDLE” it was “failed”.
Then “MRVFLLLFLLFPVLELFLLVRVGMSIGFLWTFLLVVATSMLGLFVMRVAGFATALRARESLARGELPAQEMLEGLMVAVGGGLLLLPGFISDILGVICLLPITRRLLISKVRRRAEDQAMRQRAFADDLQTQANQGPASHRPNAIHQPTREPDVIEGEFEHRDK”, with “failed”; and “MRVFPVYAPKLIVKHARIFLTGVIWVKDLGRLEFEKGRFLLPRKSLPKVKQAILELNELIEAQNHQTKTALEHHHHHH”, with “not failed”; and “MRVISGEYGGRRLKALDGDNTRPTTDKVKESIFNMIGPYFDGGMALDLYSGSGGLAIEAVSRGMDKSICIEKNFAALKVIKENIAITKEPEKFEVRKMDANRALEQFYEEKLQFDLVLLDPPYAKQEIVSQLEKMLERQLLTNEAVIVCETDKTVKLPETIGTLKKTRETVYGITQVTIYRQEA”, with “not failed”.
